± gives the standard error. Variants at the floor of the assay were thinned out.

The record followed here is the supplement of paper PMC7125110.

First the molecules themselves.
B1: glmS ribozyme (parent)
chain: AUAAAAGCGCCAGAACUACAGAAAUGUAGUUGACGAGGAGGAGGUUUAUCGAAUUUUCGGCGGAUGCCUCCAAA

Variants of B1 are the subject of the first series. Description: self-cleavage kobs at 2500 uM GlcN6P; higher = faster cleavage; RNA array. As to conditions: with glucosamine-6-phosphate. In short, it runs like this: (§1)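 kobs was derived by fitting per-tile medians to one- or two-exponential decays after normalising signals to baseline and to non-cleaving reference variants. Those signals came from barcoded ribozyme variants transcribed in situ by E. coli RNA polymerase on sequenced MiSeq chips, followed through a hybridised Cy3 probe at 37 °C and imaged over ~14 h. Glucosamine-6-phosphate (40 μM to 10 mM) in HEPES/KCl/Mg(OAc)2 buffer was flowed in. Weighted Michaelis–Menten fits across concentrations then gave kcat and KM.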
As to A14C C16A G63A, the “self-cleavage kobs at 2500 uM GlcN6P” value was less than 1e-05 s⁻¹.
Take C16A A39G U69G: the “self-cleavage kobs at 2500 uM GlcN6P” value worked out at 0.000118 ± 3.8e-05 s⁻¹.
Still for that read-out and setting: in the case of G29U G40A U65A it was 3.42e-05 ± 1.6e-05 s⁻¹; in that of G13C C16U C71U, 7.64e-05 ± 1.7e-05 s⁻¹.
On to G29U C34U U55G C67U, for which the “self-cleavage kobs at 2500 uM GlcN6P” value is less than 1e-05 s⁻¹.
The same measure, in the same setting: in the case of U30A G32C A39G it was 9.38e-05 ± 3.4e-05 s⁻¹.
With G37U U46G A52U U57A, the “self-cleavage kobs at 2500 uM GlcN6P” value was less than 1e-05 s⁻¹.
Same read-out and setting: in the case of A14U A42C U54A it was less than 1e-05 s⁻¹.
As for A14U U45G G60U, the “self-cleavage kobs at 2500 uM GlcN6P” value was less than 1e-05 s⁻¹.
The same measure, in the same setting: in the case of G9U G40A G60U it was less than 1e-05 s⁻¹; in that of G7A A39C G59C C70U, less than 1e-05 s⁻¹; in that of U31C G38A U47G G51C, less than 1e-05 s⁻¹.
The same measure, in the same setting: in the case of A12U A14U G66A it was 0.000704 ± 0.00016 s⁻¹; in that of A52U U54A C67U, 0.000187 ± 5.3e-05 s⁻¹.
As to G38U A39G C58U G59U, the “self-cleavage kobs at 2500 uM GlcN6P” value is less than 1e-05 s⁻¹.
Still for that read-out and setting: in the case of A39U A42C U45G it was 0.000613 ± 0.00019 s⁻¹.
Still for that read-out and setting: in the case of A6C A52U G60A it was less than 1e-05 s⁻¹; in that of A36C G37A A39C C50U A53C, less than 1e-05 s⁻¹; in that of A6G G40C A42U, less than 1e-05 s⁻¹.
Still for that read-out and setting: in the case of A6G A12G A33U A36C it was less than 1e-05 s⁻¹; in that of G13C G32U G38U U47G A48U, less than 1e-05 s⁻¹.
Take C8G G35A G43C U69G: the “self-cleavage kobs at 2500 uM GlcN6P” value is less than 1e-05 s⁻¹.
On the same count and under the same terms, in the case of G37U U49G U57C it was less than 1e-05 s⁻¹; in that of C16G U31A C34A, less than 1e-05 s⁻¹; in that of C8A G59C C67G, less than 1e-05 s⁻¹.
The same measure, in the same setting: in the case of A42U U56A U69G it was 0.00299 ± 0.00059 s⁻¹; in that of C8U A15U U31C A36G U46A A52U C58A C67U C70U, less than 1e-05 s⁻¹.
Turning to G7U G35U C50U, the “self-cleavage kobs at 2500 uM GlcN6P” value was less than 1e-05 s⁻¹.
The same measure, in the same setting: in the case of C16G G40U U69G it was less than 1e-05 s⁻¹; in that of G7C G9A A14U C50A, less than 1e-05 s⁻¹; in that of A6U G7A G60U G62U U65G, less than 1e-05 s⁻¹.
On the same count and under the same terms, in the case of U47A C68G U69G it was 7.59e-05 ± 3.7e-05 s⁻¹; in that of C10A A36C C50G, 0.000367 ± 0.00015 s⁻¹.
Same read-out and setting: in the case of A48U C50A U65G it was less than 1e-05 s⁻¹; in that of U31G C68U C71U, 7.95e-05 ± 3.1e-05 s⁻¹.
For A15U A48C G59A G60U, the “self-cleavage kobs at 2500 uM GlcN6P” value is less than 1e-05 s⁻¹.
Same read-out and setting: in the case of C8A U31C A42U U65G it was less than 1e-05 s⁻¹.
The same measure, in the same setting: in the case of G13C G41A G62C it was less than 1e-05 s⁻¹; in that of G7U A42C A64U G66U, less than 1e-05 s⁻¹; in that of U31A G35C A39U C67A C70U, less than 1e-05 s⁻¹.
Still for that read-out and setting: in the case of G37A G40A U56G it was 5.62e-05 ± 1.8e-05 s⁻¹; in that of G37A G40A U56A, 0.000109 ± 1.8e-05 s⁻¹.
With C11G G13C C50A A53G U55A, the “self-cleavage kobs at 2500 uM GlcN6P” value is less than 1e-05 s⁻¹.
On to G9A G51U U56G G63C, for which the “self-cleavage kobs at 2500 uM GlcN6P” value is less than 1e-05 s⁻¹.
Still for that read-out and setting: in the case of A6G A52G G62C it was less than 1e-05 s⁻¹.
On the same count and under the same terms, in the case of C16G G43A A48U it was less than 1e-05 s⁻¹.
Same read-out and setting: in the case of G9U G29U U31A U46A it was less than 1e-05 s⁻¹; in that of G35C G43U U69G, less than 1e-05 s⁻¹.
For the variant A33C G51A A53U, the “self-cleavage kobs at 2500 uM GlcN6P” value was less than 1e-05 s⁻¹.
In the case of G13U U31C G44U A64U, the “self-cleavage kobs at 2500 uM GlcN6P” value is less than 1e-05 s⁻¹.
Still for that read-out and setting: in the case of G13C G59A G66A C68U it was less than 1e-05 s⁻¹.
On the same count and under the same terms, in the case of U31C G35A C71U it was less than 1e-05 s⁻¹.
Still for that read-out and setting: in the case of G26U G32C G35U G38U G63C it was less than 1e-05 s⁻¹; in that of G62U C68U C71A, less than 1e-05 s⁻¹; in that of U30G U49G U54A, 4.83e-05 ± 2.3e-05 s⁻¹.
Consider G41U U57G C70A, for which the “self-cleavage kobs at 2500 uM GlcN6P” value worked out at 0.000107 ± 1.9e-05 s⁻¹.
On the same count and under the same terms, in the case of G13U A53C it was 9.93e-05 ± 1.9e-05 s⁻¹; in that of G29U U47G U54G, 0.000533 ± 0.00012 s⁻¹.
Same read-out and setting: in the case of G35C A48G A53U it was less than 1e-05 s⁻¹.
Still for that read-out and setting: in the case of U47G C68A C71G it was 0.00013 ± 3.6e-05 s⁻¹.
G9C G32C C70A: the “self-cleavage kobs at 2500 uM GlcN6P” value was less than 1e-05 s⁻¹.
As to C34U C50A U69C, the “self-cleavage kobs at 2500 uM GlcN6P” value was 0.000135 ± 6.7e-05 s⁻¹.
For C10U C58A C71U, the “self-cleavage kobs at 2500 uM GlcN6P” value was less than 1e-05 s⁻¹.
On the same count and under the same terms, in the case of A15C A36C A48U it was less than 1e-05 s⁻¹.
In the case of A12G A15U G35A, the “self-cleavage kobs at 2500 uM GlcN6P” value was less than 1e-05 s⁻¹.
On the same count and under the same terms, in the case of G7U G35U G37C U46C C68A it was less than 1e-05 s⁻¹.
As to A36U A42U G59U, the “self-cleavage kobs at 2500 uM GlcN6P” value was less than 1e-05 s⁻¹.
Same read-out and setting: in the case of A6G A12U C67U it was 0.000919 ± 0.00023 s⁻¹; in that of G13C G44C A53U, less than 1e-05 s⁻¹; in that of U47A U55C U69C, 0.000127 ± 4.1e-05 s⁻¹.
On the same count and under the same terms, in the case of A14G G60U G66A it was less than 1e-05 s⁻¹; in that of C8A A12C A36U G59U, less than 1e-05 s⁻¹; in that of A12U A33G G38U G44U G59A, less than 1e-05 s⁻¹.
On to A6U U31G G41U, for which the “self-cleavage kobs at 2500 uM GlcN6P” value was less than 1e-05 s⁻¹.
On the same count and under the same terms, in the case of A14U A33U A53C G63U it was less than 1e-05 s⁻¹; in that of A36U C58G C70U, 6.88e-05 ± 2.4e-05 s⁻¹.
For the variant A6U C50G U55G A64G C67U, the “self-cleavage kobs at 2500 uM GlcN6P” value was found to be 0.000132 ± 3.6e-05 s⁻¹.
In the case of A12U U65G C70A, the “self-cleavage kobs at 2500 uM GlcN6P” value was found to be 6.44e-05 ± 2.6e-05 s⁻¹.
The same measure, in the same setting: in the case of A39U G41C A52U it was less than 1e-05 s⁻¹.
Same read-out and setting: in the case of G7U C16G A48U it was less than 1e-05 s⁻¹.
As to A14G C16G U30G U49C U54A C67G C68U, the “self-cleavage kobs at 2500 uM GlcN6P” value was less than 1e-05 s⁻¹.
As to C8U A12U C34A, the “self-cleavage kobs at 2500 uM GlcN6P” value was less than 1e-05 s⁻¹.
Consider A14C A39C U65G, for which the “self-cleavage kobs at 2500 uM GlcN6P” value is less than 1e-05 s⁻¹.

Another series covers variants of B1. Description: self-cleavage kobs at 10000 uM GlcN6P; higher = faster cleavage; RNA array. As to conditions: with glucosamine-6-phosphate. In short, it runs like this:
as §1
For G13C C16U C71U, the “self-cleavage kobs at 10000 uM GlcN6P” value turned out to be 0.000169 ± 5.1e-05 s⁻¹.
Still for that read-out and setting: in the case of A36C G37A A39C C50U A53C it was less than 1e-05 s⁻¹.
The same measure, in the same setting: in the case of C8A U31C A42U U65G it was less than 1e-05 s⁻¹; in that of A12U U65G C70A, 0.000122 ± 2.2e-05 s⁻¹.
Same read-out and setting: in the case of A14G C16G U30G U49C U54A C67G C68U it was less than 1e-05 s⁻¹.
